Drawing on patent US20250092100A1, this text covers reduction of binding to Ran compared with the wild-type MOG1 for one substance.

One assay has as its target HA-tagged Ran (UniProt P62826). The experiment in a line: co-immunoprecipitation in tsA-201 cells, HA antibody pull-down of HA-Ran, anti-FLAG Western blot quantified. Background: In western blotting, separated proteins are transferred to a membrane and probed.
For a further assay, the target named is GST-Ran (UniProt P62826). Kind of assay: GST pull-down, GST-Ran bait, lysate of tsA201 cells with FLAG-MOG1 as prey, anti-FLAG Western blot quantified.

With “E50K MOG1 mutant tagged with FLAG (from UniProt Q9HD47 1-186)”, the reduction of binding to Ran compared with the wild-type MOG1 in the assay with HA-tagged Ran came out at 92%; with GST-Ran, 95%.
